This data set deals with the molecule itself. As to the kind of experiment: non-reducing SDS-PAGE and Western blot; supernatants of 293F cells with FLAG-tagged ECD proteins, Laemmli buffer without reducing agent, HRP-conjugated anti-FLAG detection.

Experimental findings from article PMC5109244, “A pH‐ and ionic strength‐dependent conformational change in the neck region regulates DNGR‐1 function in dendritic cells” (The EMBO Journal, 2016) are described below.

B1: human DNGR-1 ECD (extracellular domain of human DNGR-1) (domain or fragment)
chain: not shown
modifications: glycosylated (mobility augmented by PNGase F)
notes: human DNGR-1 (CLEC9A), single isoform, extracellular domain K57–V241; Disulfide-bonded homodimer; also called human ECD; human isoform; source: 293F cells, transient transfection
Regarding B1, the “stoichiometry N” value is 2.
